The assay has as its target GAL4 activation domain-E2F-1 hybrid protein (GAD.E2F-1) (human). In words: cell-based or functional assay.

Regarding “LexA-DP-1^172/173 hybrid protein (pLEX-DP-1/MT) (from UniProt Q08639 1-410)”, the activity in the yeast two-hybrid assay relative to wild-type DP-1 (% reduction relative to wild-type DP-1) stood at 50 and the response of the E2F binding site reporter in yeast was 50 % reduction.
